Laboratory results as given in US20120288494A1 (published 2012).
Where two headings read alike, the source gives them in different places.

B3: IL-12 (ligand)
chain 1: IWELKKDVYVVELDWYPDAPGEMVVLTCDTPEEDGITWTLDQSSEVLGSGKTLTIQVKEFGDAGQYTCHKGGEVLSHSLLLLHKKEDGIWSTDILKDQKEPKNKTFLRCEAKNYSGRFTCWWLTTISTDLTFSVKSSRGSSDPQGVTCGAATLSAERVRGDNKEYEYSVECQEDSACPAAEESLPIEVMVDAVHKLKYENYTSSFFIRDIIKPDPPKNLQLKPLKNSRQVEVSWEYPDTWSTPHSYFSLTFCVQVQGKSKREKKDRVFTDKTSATVICRKNASISVRAQDRYYSSSWSEWASVPCS
chain 2: RNLPVATPDPGMFPCLHHSQNLLRAVSNMLQKARQTLEFYPCTSEEIDHEDITKDKTSTVEACLPLELTKNESCLNSRETSFITNGSCLASRKTSFMMALCLSSIYEDLKMYQVEFKTMNAKLLMDPKRQIFLDQNMLAVIDELMQALNFNSETVPQKSSLEEPDFYKTKIKLCILLHAFRIRAVTIDRVMSYLNAS

Columns and labels:
IL-12 [1] = target: B3; assay: receptor binding assay (RBA)
IL-12 [2] = target: B3; assay: kinetic binding
human IL-12 p70 [3] = target: T1, human IL-12 p70 (UniProt P29460 23-328; P29459 23-219); assay: kinetic binding
T1 chain 1: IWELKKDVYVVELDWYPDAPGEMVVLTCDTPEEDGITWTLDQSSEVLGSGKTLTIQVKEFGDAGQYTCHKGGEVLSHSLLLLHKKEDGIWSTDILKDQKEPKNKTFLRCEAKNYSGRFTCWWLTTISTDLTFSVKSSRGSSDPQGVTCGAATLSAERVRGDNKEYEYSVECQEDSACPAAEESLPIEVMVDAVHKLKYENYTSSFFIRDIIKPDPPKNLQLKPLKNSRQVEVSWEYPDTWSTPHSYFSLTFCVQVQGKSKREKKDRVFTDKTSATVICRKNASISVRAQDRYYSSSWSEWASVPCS
T1 chain 2: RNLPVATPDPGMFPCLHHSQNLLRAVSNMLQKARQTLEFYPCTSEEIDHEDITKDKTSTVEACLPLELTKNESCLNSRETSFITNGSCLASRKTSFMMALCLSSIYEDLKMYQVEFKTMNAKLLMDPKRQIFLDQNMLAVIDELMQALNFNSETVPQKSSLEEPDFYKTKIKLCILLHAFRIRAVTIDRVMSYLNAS

human IL-12 p70 [4] = target: T1, human IL-12 p70; assay: receptor binding assay (RBA)
Y61 L94Y = assay: kinetic binding
Y61 L50Y = assay: kinetic binding
78-34 = assay: kinetic binding
human IL-12 p70 [5] = target: T1, human IL-12 p70; assay: receptor binding assay (RBA)

B1: Y61 (antibody, V domains shown)
VH: QVQLVQSGGGVVQPGRSLRLSCAASGFTFSSYGMHWVRQAPGKGLEWVAFIRYDGSNKYYADSVKGRFTISRDNSKNTLYLQMKSLRAEDTAVYYCKTHGSHDNWGQGTMVTVSS
VL: SYVLTQPPSVSGTPGQRVTISCSGGRSNIGSNTVKWYQQLPGTAPKLLIYGNDQRPSGVPDRFSGSKSGTSASLAITGVQAEDEADYYCQSYDRGTHPALLFGTGTKVTVLG
With B1 the IC50 (IL-12 [1]) was 0.016 nM and the Kd (IL-12 [2]) was 0.604 nM.

B2: 103-14 (antibody, V domains shown)
VH: QVQLVQSGGGVVQPGRSLRLSCAASGFTFSSYGMHWVRQAPGKGLEWVAFIRYDGSNKYYADSVKGRFTISRDNSKNTLYLQMKSLRAEDTAVYYCKTHGSHDNWGQGTMVTVSS
VL: SYVLTQPPSVSGTPGQRVTISCSGGRSNIGSNTVKWYQQLPGTAPKLLIYGNDQRPSGVPDRFSGSKSGTSASLAITGVQAEDEADYYCQSYDRGFTGSMVFGTGTKVTVL
B2 was tested, and the koff (human IL-12 p70 [3]) was 0.00067 s⁻¹ and the IC50 (human IL-12 p70 [4]) was 0.04 nM.

B3 gave a Kd (Y61 L94Y) of 0.341 nM, a Kd (Y61 L50Y) of 0.138 nM and a koff (78-34) of 0.0164 s⁻¹.

B4: J695 (antibody, V domains shown)
VH: QVQLVESGGGVVQPGRSLRLSCAASGFTFSSYGMHWVRQAPGKGLEWVAFIRYDGSNKYYADSVKGRFTISRDNSKNTLYLQMNSLRAEDTAVYYCKTHGSHDNWGQGTMVTVSS
VL: QSVLTQPPSVSGAPGQRVTISCSGSRSNIGSNTVKWYQQLPGTAPKLLIYYNDQRPSGVPDRFSGSKSGTSASLAITGLQAEDEADYYCQSYDRYTHPALLFGTGTKVTVLG
B4 was tested, and the IC50 (human IL-12 p70 [5]) was 0.05 nM.
